Source: paper PMC3527510, “Bin2 Is a Membrane Sculpting N-BAR Protein That Influences Leucocyte Podosomes, Motility and Phagocytosis” (PLoS ONE, 2012)
Substitutions are numbered along the chain they refer to. Numbers in names are those of the source.

T1: GST-hBin2-CT (C-terminal region of human Bin2, amino acids 237-565) (Homo sapiens (Human), UniProt Q9UBW5)
T1 chain: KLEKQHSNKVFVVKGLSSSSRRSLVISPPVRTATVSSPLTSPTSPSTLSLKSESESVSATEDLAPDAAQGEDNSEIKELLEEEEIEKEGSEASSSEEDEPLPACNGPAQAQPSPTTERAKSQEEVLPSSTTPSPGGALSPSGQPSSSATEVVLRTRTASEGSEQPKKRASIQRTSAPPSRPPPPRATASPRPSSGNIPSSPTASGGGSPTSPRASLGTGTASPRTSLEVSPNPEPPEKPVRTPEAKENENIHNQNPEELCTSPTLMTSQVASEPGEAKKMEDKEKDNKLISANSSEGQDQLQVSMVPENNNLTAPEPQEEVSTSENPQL

B1: Human α-PIX SH3 domain (amino acids 160-222) (domain or fragment, UniProt Q15052 160-222, looked up)
chain: SHQLIVKARFNFKQTNEDELSVCKGDIIYVTRVEEGGWWEGTLNGRTGWFPSNYVREIKSSER
notes: α-PIX, human, SH3 domain, residues 160-222; Cloned into pGEX-4T-2
B2: Rat Bin2 N-BAR domain (1-238), wild type (domain or fragment, UniProt Q68FR2 1-238, looked up)
chain: MAEGKAGGAAGLFAKQMQKKFSRAQEKVLQKLGKTVETKDERFEQSASNFYQQQAEGHRLYKDLKNFLSAVKVMRESSKRVSETLQEIYNSDWDGHEDLKAIVGNNDLLWEDYEEKLADQALRTMENYVSQFSEVKERIAKRGRKLVDYDSARHHLEAVQNAKKKDEAKMAKAEEDFSKAQVVFEDLNQELLEELPVLYNSRIGCYVTVFQNISNLRDVFYREMSKLNHSLYEVMSKL
notes: Bridging integrator-2 (Bin2), rat, residues 1-238; also called WT rBin2 N-BAR
B3: Rat Bin2 N-BAR V81R,S214E mutant (domain or fragment, UniProt Q68FR2 1-238, looked up)
chain: B2 chain with V81R, S214E
notes: also called rBin2 N-BAR V81R,S214E; dimerization mutant
B4: Human Bin2 N-BAR domain (1-238) (domain or fragment, UniProt Q9UBW5 1-238, looked up)
chain: MAEGKAGGAAGLFAKQVQKKFSRAQEKVLQKLGKAVETKDERFEQSASNFYQQQAEGHKLYKDLKNFLSAVKVMHESSKRVSETLQEIYSSEWDGHEELKAIVWNNDLLWEDYEEKLADQAVRTMEIYVAQFSEIKERIAKRGRKLVDYDSARHHLEAVQNAKKKDEAKTAKAEEEFNKAQTVFEDLNQELLEELPILYNSRIGCYVTIFQNISNLRDVFYREMSKLNHNLYEVMSKL
notes: Bridging integrator-2 (Bin2, BRAP1), human, residues 1-238; also called hBin2 N-BAR; source: E. coli DH5α, purified (glutathione sepharose, thrombin cleavage, HiTrap Q, gel filtration)
B5: GST-hBin2-CT (C-terminal region of human Bin2, amino acids 237-565) (domain or fragment, UniProt Q9UBW5 237-565, looked up)
chain: T1 chain
notes: Cloned into Nde1/Not1 sites of pGEX-4T-2; also called GST-Bin2-CT; BCT; source: E. coli DH5α, purified (glutathione sepharose, eluted with glutathione, dialysed)
B6: Human Bin2 BAR domain (residues 20-238; Bin2 N-BAR Δ19) (domain or fragment, UniProt Q9UBW5 20-238, looked up)
chain: KFSRAQEKVLQKLGKAVETKDERFEQSASNFYQQQAEGHKLYKDLKNFLSAVKVMHESSKRVSETLQEIYSSEWDGHEELKAIVWNNDLLWEDYEEKLADQAVRTMEIYVAQFSEIKERIAKRGRKLVDYDSARHHLEAVQNAKKKDEAKTAKAEEEFNKAQTVFEDLNQELLEELPILYNSRIGCYVTIFQNISNLRDVFYREMSKLNHNLYEVMSKL
notes: Bridging integrator-2 (Bin2, BRAP1), human, residues 20-238; human Bin2 has 565 amino acids; the final model holds residues 37-238; Cloned into BamH1/Xho1 sites of pGEX-4T-2; also called hBin2 BAR; Bin2-NTΔ19; source: E. coli DH5α, purified (glutathione sepharose, thrombin cleavage, HiTrap Q, gel filtration)

Key:
[1] = molecular target: T1, GST-hBin2-CT (C-terminal region of …); test: GST pull-down, Coomassie
[2] = molecular target: B5; test: pull-down; 10 µg GST fusion or GST on glutathione beads with rising amounts of purified prey, 60 min; 20 mM HEPES pH 7.5, 150 mM NaCl, 1 mM DTT, 0.1% Triton X-100; SDS-PAGE, Coomassie; conditions: both partners purified
[3] = molecular target: the molecule itself; test: SEC; gel filtration profiles of WT rBin2 N-BAR against the V81R,S214E mutant, with molecular weight standards
[4] = molecular target: the molecule itself; test: AUC; equilibrium sedimentation, 20°C, 20,000, 30,000 and 40,000 rpm; 20 mM Tris, 200 mM NaCl, 0.1 mM DTT; dimer to monomers
[5] = molecular target: T2, Full-length rat Endophilin A1 (rat, UniProt O35179 1-352); test: pull-down; 10 µg GST fusion or GST on glutathione beads with rising amounts of purified prey, 60 min; 20 mM HEPES pH 7.5, 150 mM NaCl, 1 mM DTT, 0.1% Triton X-100; SDS-PAGE, Coomassie; conditions: both partners purified
T2 construct: Endophilin A1, rat, full length; Cloned into pGEX-6P-2; also called rEndoA1; EndoA1

[6] = molecular target: the molecule itself; test: crystal structure; hanging-drop crystals in 10% MPD, 7% PEG4000, 0.1 M sodium citrate pH 5.3, 20°C; MIRAS phasing; two molecules in the asymmetric unit

T2 sequence (O35179 whole entry, the tested form may be a part): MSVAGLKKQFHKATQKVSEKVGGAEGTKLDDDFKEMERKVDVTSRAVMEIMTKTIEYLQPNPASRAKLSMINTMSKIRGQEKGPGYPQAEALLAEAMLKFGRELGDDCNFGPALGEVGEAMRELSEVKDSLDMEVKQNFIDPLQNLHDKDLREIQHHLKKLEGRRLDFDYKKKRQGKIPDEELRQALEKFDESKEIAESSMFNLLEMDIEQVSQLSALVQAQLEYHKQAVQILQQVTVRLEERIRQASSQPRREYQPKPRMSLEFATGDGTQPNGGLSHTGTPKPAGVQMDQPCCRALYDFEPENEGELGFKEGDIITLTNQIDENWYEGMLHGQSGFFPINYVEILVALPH

## B1
[1]
  binding result: binds
[2]
  binding result: binds

## B2
[3]
  binding result: binds

## B3
[3]
  binding result: binds

## B4
[4]
  Kd: 7 µM

## B5
[5]
  binding result: binds

## B6
[6]
  binding result: binds
